Paper PMC314469, “Protein Interaction Networks by Proteome Peptide Scanning” (PLoS Biology, 2004)

T1: amphyphisin SH3 (AMPH_HUMAN), P49418
T1 chain: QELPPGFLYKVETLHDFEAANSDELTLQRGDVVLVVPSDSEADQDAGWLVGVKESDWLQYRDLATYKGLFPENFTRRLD


Key:
[1] = target: T1, amphyphisin SH3 (AMPH_HUMAN), P49418; experiment: SPOT array
[2] = target: endophilin SH3 (SH3G2_HUMAN), Q99962; experiment: SPOT array

| normalised SPOT signal, Boehringer light units (BLU); mean over the file's lines of this peptide [1] | normalised SPOT signal, Boehringer light units (BLU); mean over the file's lines of this peptide [2] | Binder |
| --- | --- | --- |
| 23.3 | 15 | SGRHFRRPDPSREP [Q9H9Q6 68-81] |
| 26 | 115 | VGDVLRRPSKDEPL [Q14571 2500-2513] |
| 119 | 189 | VSRDITRPPKTVAT [Q14425 672-685] |
| 53.1 | 9.5 | VSLALVRPSKMGLS [O15403 466-479] |
| 81.1 | 382 | VKMQLRRPSDQEVS [Q04864 259-272] |
| 58.3 | 4710 | SGPPPLRPPLPAAA [P22004 21-35] |
| 18.2 | 89.9 | VATDLGRPARSATG [Q96JQ0 2039-2052] |
| 247 | 258 | VEPPPRRPMSQKSE [Q96MR0 151-164] |
| 32.8 | 34.9 | VKPGLRRPPASPAL [Q05215 182-195] |
| 167 | 107 | VKRRPGRPRKSPLQ [Q9NR48 1846-1859] |
| 72.4 | 281 | VFRVLRRPQEFVNR [Q9ULB8 127-140] |
| 28 | 64.9 | VHLKLRRPVTVPAG [Q9BT99 240-253] |
| 17500 | 14900 | VKIPPKRPPRKHIV [Q8WVK0 107-121] |
| 1490 | 200 | SGVRFHRPYRLLMH [Q9NT61 332-345] |
| 609 | 8910 | SISKPERPMKFLRE [P31321 38-51] |
| 169 | 498 | VGTLPSKPPFRFGQ [O60318 21-35] |
| 56.8 | 2740 | VKKIPKKPPAPDPF [Q9UQN5 1344-1358] |
| 638 | 49.9 | VEHVPGRPVRNPQS [P25391 53-66] |
| 42.3 | 98.9 | VSARPEKPPGQVTR [P35475 539-553] |
| 126 | 344 | VSPGPIRPIKQISD [Q14184 22-35] |
| 320 | 112 | VGTELLRPLRGLLS [Q9NX26 97-110] |

| normalised SPOT signal, Boehringer light units (BLU); mean over the file's lines of this peptide [1] | normalised SPOT signal, Boehringer light units (BLU); mean over the file's lines of this peptide [2] | Binder |
| --- | --- | --- |
| 40.2 | 144 | VKLLIRRPESFGPA [Q15413 2218-2231] |
| 32.8 | 267 | VAWHPKRPLLAFAS [Q96J01 313-326] |
| 138 | 205 | VLAEIPRPLKRRGS [Q9Y290 36-49] |
| 596 | 244 | VLAELPRPRRPPLQ [Q9NSY0 101-114] |
| 7.4 | 51.8 | VDNTIKRPNPAPGT [Q9UQ13 68-81] |
| 1280 | 254 | VSPGPIRPIRQISD [Q14183 21-34] |
| 155 | 728 | VFQAPRRPGIGTVG [Q9UL18 20-33] |
| 30 | 3650 | VSRLPKRPEPSPPL [Q15515 17-30] |
| 30.3 | 32 | VKLKIKRPYGRKSQ [O60281 820-833] |
| 32.4 | 20.6 | VEGILKRPPDEQRL [Q15370 31-44] |
| 98 | 187 | VFTPLRRPGMLVPK [Q9UIW6 20-33] |
| 11700 | 390 | VGKAFIRPFREHHI [Q9GZT0 109-122] |
| 4010 | 97.6 | VHGDIFRPPRKGML [Q99805 351-364] |
| 26.8 | 43.5 | VETSLRRPQDKDAK [P36776 780-793] |
| 27.1 | 31.6 | VESILKRPSSAITR [Q9NPG6 312-325] |
| 51.3 | 79.6 | VEGSPFRPPSHSFS [O95359 85-99] |
| 1960 | 177 | VGASLTRPNRRLRW [Q9Y3M8 456-469] |
| 36.6 | 77.8 | VGIQLRRPLFQKVT [P21709 133-146] |
| 7280 | 269 | VGASLTRPSRKLRW [Q92502 483-496] |
| 30.5 | 46.2 | VEELLRRPMDSLDS [P42229 764-777] |
| 12.9 | 13.7 | VFLSFRRPFWREEH [Q96RQ9 355-368] |
